Laboratory results from publication PMC7049730 (Nucleic Acids Research, 2019).

What was measured:
[1] = target: P. furiosus Rad50 nucleotide binding domain L51C/D829N, LRET-labelled (UniProt P58301); experiment: LRET time course; conditions: Rad50 NBD in MRNBD complex with Mre11; after addition of saturating ATP; parent: est. 1.0; read off a plot
[2] = target: P. furiosus Rad50 nucleotide binding domain L51C/L828A, LRET-labelled (UniProt P58301); experiment: LRET time course; conditions: Rad50 NBD in MRNBD complex with Mre11; after addition of saturating ATP; parent: est. 1.0; read off a plot
[3] = target: T1, Pf MR^NBD complex (Mre11-Rad50^NBD) (Pyrococcus furiosus, UniProt P58301, DEL196-708); experiment: Mre11 exonuclease assay, 2-aminopurine fluorescence (Exo2 dsDNA); format: biochemical; conditions: 1 mM AMP-PNP, 1 mM MnCl2, 5 mM MgCl2, 60 C, pH 7.5; binds Rad50 and stabilizes the closed state that occludes the Mre11 active site
T1 construct: ~180 kDa complex; with DNA double-strand break repair protein Mre11

[4] = target: Mre11^HLH-Rad50^NBD, wild type (Pyrococcus furiosus) (UniProt P58301); experiment: SEC; Superdex 200 Increase 10/300 GL, 4 °C, with 5 mM ATP; fraction dimer = area of the dimer peak over the areas of monomer and dimer peaks; monomer to dimer
[5] = target: P. furiosus Rad50 nucleotide binding domain L51C/L828F, LRET-labelled (UniProt P58301); experiment: LRET time course; conditions: Rad50 NBD in MRNBD complex with Mre11; after addition of saturating ATP; parent: est. 1.0; read off a plot
[6] = target: the molecule itself; experiment: FRET or BRET; as a1 but with 2 mM ATP (ATP-bound); MR^NBD complexes with Mre11; 50 mM Tris, 200 mM NaCl, 5 mM MgCl2, pH 7.5, 50 °C; percent of LRET-visible molecules only
[7] = target: the molecule itself; experiment: FRET or BRET; LRET time course: increase of donor-sensitized Bodipy FL emission after addition of 2 mM ATP to MR complexes; kex = k_assoc + k_dissoc of open to closed; 50 mM Tris, 200 mM NaCl, 5 mM MgCl2, pH 7.5, 50 °C
[8] = target: the molecule itself; experiment: FRET or BRET; LRET between Tb3+ chelate (donor) and Bodipy FL (acceptor) on L51C of the two Rad50^NBD in MR^NBD complexes with Mre11; donor-sensitized acceptor lifetimes, three-exponential fit; no ATP (apo); 0.5 uM wild type, L828A, D829A or 2.0 uM L828F, D829N complexes; 50 mM Tris, 200 mM NaCl, 5 mM MgCl2, pH 7.5, 50 °C; percent of LRET-visible molecules only

Molecule | percent of molecules in the closed state [6] | fold faster approach to equilibrium (kex) than wild type [7] | percent of molecules in the closed state [8] | other results
P. furiosus Rad50 nucleotide binding domain L51C, LRET-labelled (from UniProt P58301) D829N | – | – | – | ratio to parent [1]: 8.7
P. furiosus Rad50 nucleotide binding domain L51C, LRET-labelled (from UniProt P58301) L828A | – | – | – | ratio to parent [2]: 4.4
Nc1ncnc2c1ncn2[C@@H]1O[C@H](COP(=O)(O)OP(=O)(O)NP(=O)(O)O)[C@@H](O)[C@H]1O [AMP-PNP] | – | – | – | Mre11 exonuclease assay, 2-aminopurine fluorescence (Exo2 dsDNA) [3]: AMP-PNP, which stabilizes the complex into the closed state and occludes the Mre11 active
Mre11^HLH-Rad50^NBD, wild type (from UniProt P58301 1-195; P58301 709-882) (complex) | – | – | – | percent converted to a stable dimer upon addition of ATP [4]: 30%; stoichiometry N [4]: 2
P. furiosus Rad50 nucleotide binding domain L51C, LRET-labelled (from UniProt P58301) L828F | – | – | – | ratio to parent [5]: 4.2
P. furiosus Rad50 nucleotide binding domain L51C/L828F, LRET-labelled (domain or fragment, Pyrococcus furiosus, Tb3+ chelate DTPA-cs124-EMPH (donor) or Bodipy FL maleimide (acceptor) on the cysteine L51C, Rad50, Pyrococcus furiosus, amino acids 1-195; linker that replaces most of the coiled-coil and the Zn-hook; Rad50, Pyrococcus furiosus, amino acids 709-882; Measured within the MR^NBD complex with Mre11; also called L828F MR^NBD (LRET); source: labelled and passed over Superdex 200 Increase) MKLERVTVKNFRSHSDTVVEFKEGINLIIGQNGSGKSSLLDAILVGLYWPCRIKDIKKDEFTKVGARDTYIDLIFEKDGTKYRITRRFLKGYSSGEIHAMKRLVGNEWKHVTEPSSKAISAFMEKLIPYNIFLNAIYIRQGQIDAILESDEAREKVVREVLNLDKFETAYKKLSELKKTINNRIKEYRDILARTEGGAGGAGGRERVKKEIKDLEKAKDFTEELIEKVKKYKALAREAALSKIGELASEIFAEFTEGKYSEVVVRAEENKVRLFVVWEGKERPLTFLSGGERIALGLAFRLAMSLYLAGEISLLILDEPTPYFDEERRRKLITIMERYLKKIPQVILVSHDEELKDAADHVIRISLENGSSKVEVVS | 30% | ~4 fold | 30% | –
P. furiosus Rad50 nucleotide binding domain L51C/L828A, LRET-labelled (domain or fragment, Pyrococcus furiosus, Tb3+ chelate DTPA-cs124-EMPH (donor) or Bodipy FL maleimide (acceptor) on the cysteine L51C, Rad50, Pyrococcus furiosus, amino acids 1-195; linker that replaces most of the coiled-coil and the Zn-hook; Rad50, Pyrococcus furiosus, amino acids 709-882; Measured within the MR^NBD complex with Mre11; also called L828A MR^NBD (LRET); source: labelled and passed over Superdex 200 Increase) MKLERVTVKNFRSHSDTVVEFKEGINLIIGQNGSGKSSLLDAILVGLYWPCRIKDIKKDEFTKVGARDTYIDLIFEKDGTKYRITRRFLKGYSSGEIHAMKRLVGNEWKHVTEPSSKAISAFMEKLIPYNIFLNAIYIRQGQIDAILESDEAREKVVREVLNLDKFETAYKKLSELKKTINNRIKEYRDILARTEGGAGGAGGRERVKKEIKDLEKAKDFTEELIEKVKKYKALAREAALSKIGELASEIFAEFTEGKYSEVVVRAEENKVRLFVVWEGKERPLTFLSGGERIALGLAFRLAMSLYLAGEISLLILDEPTPYADEERRRKLITIMERYLKKIPQVILVSHDEELKDAADHVIRISLENGSSKVEVVS | 54% | ~4 fold | 46% | –
P. furiosus Rad50 nucleotide binding domain L51C/D829A, LRET-labelled (domain or fragment, Pyrococcus furiosus, Tb3+ chelate DTPA-cs124-EMPH (donor) or Bodipy FL maleimide (acceptor) on the cysteine L51C, Rad50, Pyrococcus furiosus, amino acids 1-195; linker that replaces most of the coiled-coil and the Zn-hook; Rad50, Pyrococcus furiosus, amino acids 709-882; Measured within the MR^NBD complex with Mre11; also called D829A MR^NBD (LRET); source: labelled and passed over Superdex 200 Increase) MKLERVTVKNFRSHSDTVVEFKEGINLIIGQNGSGKSSLLDAILVGLYWPCRIKDIKKDEFTKVGARDTYIDLIFEKDGTKYRITRRFLKGYSSGEIHAMKRLVGNEWKHVTEPSSKAISAFMEKLIPYNIFLNAIYIRQGQIDAILESDEAREKVVREVLNLDKFETAYKKLSELKKTINNRIKEYRDILARTEGGAGGAGGRERVKKEIKDLEKAKDFTEELIEKVKKYKALAREAALSKIGELASEIFAEFTEGKYSEVVVRAEENKVRLFVVWEGKERPLTFLSGGERIALGLAFRLAMSLYLAGEISLLILDEPTPYLAEERRRKLITIMERYLKKIPQVILVSHDEELKDAADHVIRISLENGSSKVEVVS | 60% | – | 42% | –
P. furiosus Rad50 nucleotide binding domain L51C/D829N, LRET-labelled (domain or fragment, Pyrococcus furiosus, Tb3+ chelate DTPA-cs124-EMPH (donor) or Bodipy FL maleimide (acceptor) on the cysteine L51C, Rad50, Pyrococcus furiosus, amino acids 1-195; linker that replaces most of the coiled-coil and the Zn-hook; Rad50, Pyrococcus furiosus, amino acids 709-882; Measured within the MR^NBD complex with Mre11; also called D829N MR^NBD (LRET); source: labelled and passed over Superdex 200 Increase) MKLERVTVKNFRSHSDTVVEFKEGINLIIGQNGSGKSSLLDAILVGLYWPCRIKDIKKDEFTKVGARDTYIDLIFEKDGTKYRITRRFLKGYSSGEIHAMKRLVGNEWKHVTEPSSKAISAFMEKLIPYNIFLNAIYIRQGQIDAILESDEAREKVVREVLNLDKFETAYKKLSELKKTINNRIKEYRDILARTEGGAGGAGGRERVKKEIKDLEKAKDFTEELIEKVKKYKALAREAALSKIGELASEIFAEFTEGKYSEVVVRAEENKVRLFVVWEGKERPLTFLSGGERIALGLAFRLAMSLYLAGEISLLILDEPTPYLNEERRRKLITIMERYLKKIPQVILVSHDEELKDAADHVIRISLENGSSKVEVVS | 33% | ~8 fold | 33% | –
